Positions count from the first letter of the chain named.
T1: TkoTpt1 (Thermococcus kodakarensis, UniProt Q5JFX3 1-180)
T1 sequence: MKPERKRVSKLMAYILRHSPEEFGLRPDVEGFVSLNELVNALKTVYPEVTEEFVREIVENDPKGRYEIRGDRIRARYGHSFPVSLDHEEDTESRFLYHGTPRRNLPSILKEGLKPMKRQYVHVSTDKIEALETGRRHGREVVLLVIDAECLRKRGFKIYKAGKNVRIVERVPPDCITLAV

T2: TkoTpt1 K63A (Thermococcus kodakarensis, UniProt Q5JFX3 1-180, K63A)
T2 sequence: T1 sequence with K63A


Legend:
TkoTpt1 = molecular target: T1, TkoTpt1; assay: X-ray crystallography
TkoTpt1 K63A = molecular target: T2, TkoTpt1 K63A; assay: X-ray crystallography

| Binder | binding result (TkoTpt1) | binding result (TkoTpt1 K63A) |
| --- | --- | --- |
| AAAAAAAAAA (ssDNA, 5'-phosphate (lost to NAD+ in the Appr>P complexes, giving 5'-OH DNA)) [5'-p-DNA (oligo dA10)] | binds | – |
| AAAAAAAAAA (ssDNA, 5'-phospho-ADP-ribosylated, formed in situ from 5'-p-DNA and NAD+) [5'-p-ADPR-DNA (dA10 intermediate)] | – | binds |

Source: paper PMC12678800
